From article PMC7838873, “Purification and Characterization of Recombinant Expressed Apple Allergen Mal d 1” (Methods and Protocols, 2020) come the findings set out here.

Series [1] deals with recombinant apple allergen Mal d 1 with a C-terminal polyhistidine-tag (apple (Malus domestica)) (UniProt Q9SYW3). Briefly: SDS-PAGE without added reducing agent + in-gel tryptic digestion with HPLC-MS/MS; purified protein after storage at -20 °C, freeze-thawing or freeze-drying (Tris, phosphate or urea buffer); denatured at 95 °C in SDS Laemmli sample buffer, Coomassie stain, band proportions by Fiji; band of higher molecular weight identified by peptides; dimer survives SDS, probably held by a disulfide bridge.

Series [2] deals with the molecule itself. The description is as above.

Take “recombinant apple allergen Mal d 1 with a C-terminal polyhistidine-tag (from UniProt Q9SYW3 1-159) (natural protein)”: in series [1], the stoichiometry N worked out at 2.

B1: recombinant apple allergen Mal d 1 without polyhistidine-tag (natural protein, apple (Malus domestica), UniProt Q9SYW3 1-159, looked up)
chain: MGVYTFENEFTSEIPPSRLFKAFVLDADNLIPKIAPQAIKQAEILEGNGGPGTIKKITFGEGSQYGYVKHRIDSIDEASYSYSYTLIEGDALTDTIEKISYETKLVACGSGSTIKSISHYHTKGNIEIKEEHVKAGKEKAHGLFKLIESYLKDHPDAYN
notes: n = 159 residues used for the CD calculation; pET-28b(+) vector, NcoI/XhoI, insert 485 bp; also called r-Mal d 1; source: E. coli BL21 star (DE3)pLysS, purified (anion-exchange chromatography, TOYOPEARL SuperQ-650S or GigaCap Q-650M)
Regarding B1, the “stoichiometry N” value in series [2] was found to be 2.

Usually stoichiometry N stands for the number of molecules, sites or subunits per partner or assembly.
